System: E6N2 (E6 Fn3-mouse IgG2a Fc-human PKR dsRBD fusion, homodimer) C121V,C135V (in dsRBD) (Homo sapiens)
Experiment: flow
Settings: KD,app; E6N2 on Protein A beads; DMEM+10% FBS, 37 C, 1 h; pH presumably 7.4; avidity from bivalent dsRBD

Substance: AllStars Negative Control siRNA (Qiagen)
- Kd: 3.5 nM

— patent US20140080766
